Test results published in the domain aggregation screens of Martell et al. (2025).

Experiment: soluble fraction after stress (log2 fold change); higher = more stays soluble; pooled small domains, quantitative proteomics
Settings: stress: 75 degC
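Further: 20 min heating vs room temperature control held 20 min.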

Sequence | soluble fraction (log2)
HMVINQRKLNLLSIYSSGSEKRAIILFPTGQTKFVKVGDTLDGGRVAAIGTSEIRYLKGGNNLVLRIPG | -2.64
HMGISNEETFLLEKMSSGRRYSRKELDNLMGFEKTKTIRLLGSLINKGLVVAEGVNRARRYIR | -1.27
HMIFSIIPGQIRLTKMEIADGYLVLYGFTPSKEIYNLHLNPALKSIFTSSETSFIPVSGGLKFMSTNKL | -2.35
HMTKKSLFNQYLDDQKRLDIVTLQKAELVDLHKLADELNIDQYNQLKKNELIFKILQSNPSE | 0.162
HMVKNVVIPDVSNKAPVDASNQLTDLGFEVVTEYKYIASDTIEEGKVVKTSPEIGSKRKYGQKITLYISSG | -1.23
HMASSRPLAEGDFVRLRAGGATGRIESIKGQKATVQMGGLKVHAPLRDLLPVAEPIKQVSTASNT | -0.00256
HMQIVHKHLQLQPDQGALRAALYSHKAVVAEQVNEQGAINLEIKLAESDFLRLLKSSGLKLQDLVSLS | -1.35
HMVVLPPTEDAPEWAQVFDRLGRPESADGYKLPVPEGADPAFAKLASAKMHELGLSAKQGAALAAWWNEQA | 0.0475
HMDSATDRVALKELLNTLSARERTIITLRYFSDQTQTQVAKSLGISQVQVSRLENAILQRLRKL | -2.08
HMIIDTELMTRVMKFGFSQADASDLVAQHSDDLLRTAISRVEARAESKGMTPLETPAGYFRWTLQDLVRNP | -2.04
HMNVAVPTPADKRKVRVMKADINAKLRVNDANGAYAVYEELKEWVTLKGFTEWNDDLSKLSETMGSMKRKV | -0.601
HMDALTLSIDAQGALYWNGQPVSRELAAQRFVEAAAQRPQPELHLRADQNVAYRHVAMTLADASRAGLTR | -0.248
HMNFSRQREIIYEQVRNFPVHPTAEEVYRALKNDNPNLSLGTVYRNLNQLSEAGMLLKIPIADGSDRFDGR | -0.655
HMGSLPPPKDGTTIYVVKPGDSLWRISGKFFGNPLFWPRLWEINPNIDNPNKIYPGDVISLKP | 0.24
HMGNLIIFYDAQTGSAPLLKAVKTSGATLVYEYKNLHGIAIRPSSKTSIEDAIAYFKKVNGVLSVE | -3.77
HMGSSLLSPKEREVLQLLAGNLSNKQIALAMGVSDETIKWHLRNLFGKLNAGGRKHLIDRARMLGLLAAA | -1.61
HMENPPISVVIPPSFRGQRIDKALGSLIGDYSRSKIQQWLQSGLVQSAGEPLLPKYTVLGNEQILIAVPS | -0.13
HMKDMKISTKNLLQELAKNYPDQTSFRKNVIETTARAMGYTGKDFYPLLTTDNRVKIGTYDLATFLRSI | -0.969
HMGVGIEALAVEVDRIRQVLTGGGALSDIQLFSQLKALGEVKTALSSMTDPRARELEKRVAQLLEASLRT | -0.708

Sequence | soluble fraction (log2)
HMIIIMKKSATNSEVRKVIERAEKEGLTVQVNQLEKQQVLGLVGDTRLIQDVAFLRYEGVENVERI | -2.37
HMNFDVETGLPLDSRLVVSGLIQRDGINSLKRYEGMIVYVESEAKNYQLVGGISNTDWAELS | -1.35
HMSSWMTKDGKIKPISKWAGVPMTSQQQADYAAGKVVELTNIPDKQGQLNTVYLKFNPEKQRPTTSLNDPR | -0.00849
HMARRLELEDIPVDEVLFTASRNLVDAIEVMDPSRQAPMIQPWLKQALEWAVGALGFSKEDAVATLTSD | 0.157
HMKKTPLSELTNRAVELFIETVFMERNYSVSSQRQFISALKIFTVFYPQTKIHNLSLERLQSSFDKLLN | -1.25
HMIGTPLSEWQKDAPEEITRDQIAELVILKFVTVEQLALASDAQLQRIGMGGVGLRERAKLYLNRK | -1.87
HMKYNYEAQQSDELSLVKGSRIHVLEKSSDGWWKGEIDNVVGWFPS | -0.239
HMENQGEDMRQQVKALVNADKTNITKLATATGYSRSTISMYLAGNYKGDVEAVERRLEEYMKTQG | -0.0512
HMFVGVDMAVKEEIGKEGVAFTDLRPAGKVSIGDDVYDAVSETGAFITRGTSVRVLKYQAGQVYVVK | -1.3
HMQAPAFDYSKVQEGVTVNHKIFGDGTVSWIDKARKYIRVQFSVGEKMFTMETAFVQGFLSL | -1.19
HMELGYTPNNLRSVRAKYGLTQKQVAEITGLKTWHPVNRWEAPVEAAYHADMPHTKWLKLLDELSSR | -1.45
HMQISMQNIASVKIDDLSDEQIQEFSTKYTAAGYSFPDVENVAKQKGMPSSEIEKLRQRVLTAQNTQEK | 0.283
HMRMTPRQALDDLIREREETYAAVSRLLGRNTAYIQQYIKRGTPARLDQSDIAQLALHFDVPAKLLGGKE | -1.16
HMAPSPEGAAILRESVESVARDQVDRVALTMTARGYTTAEIAAALMVDRSTISRRLYAMRDRYHAQQDNAQ | -0.526
HMIKLTVRQQEILDLIARSIDQTGFPPTRAEIAAELGFKSVNAAEEHLQALARKGVIEMVPGISRGIRLVQ | -1.48
HMNLDPIKRKSEILSLFESHKNVKFNEIFFEKVNKEFTVLTFLIILELVKDNIIDFSQTQEGLIEFFTR | -0.00641
HMGFLTKTQRLEILLHLKDEPYYNVEKLKELIKNRYGIVYQSSQSYYDLLKEAGLSWHQTQA | -2.33
HMHIVQEGDSLYGIARQYRITVEELRSLNALETADVIVPYQKLYV | -0.851
